For assay [1], the target named is MBP-LEL113-201, maltose-binding protein linked to the CD81 large extracellular loop between residues 113 to 201 (UniProt P60033). As to the kind of experiment: EIA: E2661-his on coated MBP-LEL113-201, detected with anti-His.
For assay [2] the target is unchanged. As to the kind of experiment: EIA: HCVpp lysate on coated MBP-LEL113-201, detected with H53.

MBP-LEL113-201, maltose-binding protein linked to the CD81 large extracellular loop between residues 113 to 201, sequence (P60033 113-201 limits assumed): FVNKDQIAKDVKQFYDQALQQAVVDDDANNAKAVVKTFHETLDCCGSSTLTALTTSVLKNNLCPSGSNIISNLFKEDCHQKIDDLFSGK

As for “E2661-his C452A/C459A (from UniProt P27958 384-661)”, in assay [1], the % of WT CD81-LEL binding activity retained amounted to 40% and the decrease in CD81 binding activity amounted to 60%. In assay [1], “E2661-his M+C459A (from UniProt P27958 384-661)” registered a fold reduction in LEL binding of 16 fold. Turning to “HCVpp E2 C452A (from UniProt P27958 384-746)”, in assay [2], the CD81-binding function (reduced) was 80%. Still for that read-out and setting: with “HCVpp E2 C459A (from UniProt P27958 384-746)” the figure was 40%. “HCVpp E2 C486A (from UniProt P27958 384-746)” yielded a % of WT LEL-binding activity retained in assay [2] of 80%. For “HCVpp E2 C569A (from UniProt P27958 384-746)”, the reduction in CD81 binding ability in assay [2] was 70%.

For the origin of these results see US20130224246A1.
